Consider 167 variants from the RNAGym collection of RNA variant scans (doi:10.7554/elife.80360).

First the molecules themselves.
B1: Hairpin Ribozyme (parent)
chain: GUCCUCUUUCACGUGCGCGUGAAAGAGAGAAGUGAACCAGAGAAACACACGUUGUGGUAUAUUACCUGGUA

In the data set the parent is B1. In words: self-cleavage, relative activity (ratio to wild type); higher = more cleavage; co-transcriptional.
As to A24G U70G, the self-cleavage is 0.834.

With A24G C37G, the self-cleavage was 0.359.

As for G25U A31C, the self-cleavage was determined as 0.176. C18G G32U: the self-cleavage was found to be 0.1.

On to A30C A41G, for which the self-cleavage worked out at 0.

As to G42C U62C, the self-cleavage was found to be 0.221. For A11G A45C, the self-cleavage was determined as 0.124. In the case of G32C A36U it was 0.136. Next, A61G U62G: 0.128. In the case of U2A A41G it was 0.0798. For the variant U33C U53C, the self-cleavage was found to be 0.154. Next, G34U C48U: 0.695; C16A A45C: 0.123. Regarding C16A A45G, the self-cleavage is 0.115. In the case of C18A A23U it was 0.923; in that of G19U G68A, 0.286; in that of G25U G56A, 0.21.

Take G51A A59U: the self-cleavage amounted to 0.178. Regarding U2A A24C, the self-cleavage is 0.134. Next, A47C G68U: 0.298; U14C A31G: 0.737. In the case of C6A U70G it was 0.325; in that of C37G U60G, 0.245; in that of G51A A64C, 0.173. In the case of C4U C46G it was 0.121; in that of G13U A44G, 0.199. As to U5C A24G, the self-cleavage worked out at 0.453. In the case of A36G U52G it was 0.882. Next, C18U G40U: 0.244; U52G C65G: 0.266; A45G U60C: 0.0993. C4G G68C: the self-cleavage came out at 0.134. In the case of U20A C65A it was 0.857; in that of G29U U55A, 0.0925; in that of G13A G19U, 0.825. Next, G25A U55A: 0.149. In the case of A22G U63A it was 0.22; in that of U14G A30U, 0.175; in that of U58C A59U, 0.192. With A31C C46G, the self-cleavage was determined as 0.0917. Next, U5A A71C: 0.884. Next, A44C A49C: 0.103; U58G C66A: 0.281; U20C A30C: 0.217. For the variant G13C G15C, the self-cleavage came out at 0.541. In the case of G13C G15A it was 0.74; in that of C16A U33G, 0.317; in that of U2G U53C, 0.575. Next, C10U A47C: 0.257; C3A U63C: 0.154. In the case of A59C U67G it was 0.24; in that of A30C G54A, 0.107. In the case of G34U A35G, the self-cleavage amounted to 1.47.

As to G15C G29U, the self-cleavage is 0.174. For the variant A26U U55A, the self-cleavage was 0.082. In the case of C10A U70C, the self-cleavage turned out to be 0.616.

As for U33G G68A, the self-cleavage was found to be 0.151. In the case of C6U U67A it was 0.151; in that of A24U A44G, 0.119. Next, C4G A43U: 0.053; U14G C18U: 0.7. In the case of G34C G68C it was 0.484; in that of A64G U70G, 0.47; in that of U63G A71U, 0.117. Regarding G34U A44C, the self-cleavage came to 0.202. Next, U2C C10U: 0.159; C48A U62G: 0.0864. In the case of C12U A39U, the self-cleavage came to 0.45. Next, C4U U58A: 0.172; A49G U55C: 1.17; A28C G34C: 1.5. Next, A11U G32A: 0.165; G29A U55A: 0.13; U9A G57C: 0.185. Next, A35C U62G: 0.172. With C46A A59U, the self-cleavage came out at 0.109. In the case of A11U A31U it was 0.0898; in that of C48A C65G, 0.132. On to G40C C48U, for which the self-cleavage amounted to 0.135. Next, U33A U52G: 0.111; U2A A28U: 0.136. In the case of G1U A26U it was 0.068; in that of C50G U55G, 0.368; in that of G56U U70A, 0.145.

Consider C18G C38A, for which the self-cleavage turned out to be 0.11. Next, C46U U62G: 0.237; C46U U62C: 0.213; G27U A31G: 0.164. Next, G15A U20G: 0.85; G15U G51A: 0.948.

C18G A45C: the self-cleavage was 0.152.

G51A G68U: the self-cleavage was 0.474.

Turning to A23U C50U, the self-cleavage was 0.376.

Take A26C G69C: the self-cleavage was 0.212. In the case of A39G A61U it was 0.152. Next, C48G U60A: 0.121; A30C G69C: 0.318. Next, A28C U67G: 0.184; G57A U63A: 0.131; G34A U52A: 1.31. Turning to U14G A59C, the self-cleavage is 0.0613. In the case of A59G it was 0.17; in that of A31C U62C, 0.0677. For G13A A41G, the self-cleavage came to 0.777. In the case of A41C U55C it was 0.484. Next, C12G C65U: 0.28. Next, U5C C6G: 0.138. Take C10A A30U: the self-cleavage came out at 0.156.

On to A30U U67A, for which the self-cleavage worked out at 0.0771. With A11U U14C, the self-cleavage turned out to be 0.964. In the case of C37U A64U it was 0.242. Next, A39U A71U: 0.19; U5C U58A: 0.21. In the case of C3G A23C it was 0.194; in that of A28U C65G, 0.151. On to G17A C18U, for which the self-cleavage was 1.12. In the case of U9C U52A it was 0.895. Next, C12A A24U: 0.584. As to C10U G13A, the self-cleavage amounted to 0.662. In the case of U7A G69A it was 0.315; in that of G13C G25A, 0.448. Next, G40C G68U: 0.148; A30C A49U: 0.154; A43U G56C: 0.0883. Next, C48A U58G: 0.165. With G15A G17C, the self-cleavage amounted to 0.83. For A24G A39U, the self-cleavage is 0.473. For U8A G29A, the self-cleavage is 0.183. In the case of A24C G42C it was 0.342. As to A24C U52C, the self-cleavage stood at 0.872. Turning to A26C U55C, the self-cleavage is 0.211. As to G13U A22C, the self-cleavage stood at 0.533. For A44U C66U, the self-cleavage was 0.222.

Consider A28C G56C, for which the self-cleavage came out at 0.101. In the case of G29A C66G it was 0.0855; in that of U5C G56U, 0.128; in that of U8C G27U, 0.158.

As to G42U G54U, the self-cleavage is 0.191. In the case of A28U U55G, the self-cleavage was found to be 0.159. Next, A30C G57U: 0.266; A22C C65G: 0.116; G57C U67C: 0.114. In the case of A36G G68U it was 0.237.

With C37U C65G, the self-cleavage was 0.163. Consider C50A G51U, for which the self-cleavage was found to be 0.399.

For the variant U5C G54U, the self-cleavage was determined as 0.492. Turning to G27C A44C, the self-cleavage came out at 0.0898. Next, C10A A45C: 0.111; G34C U63G: 0.262. For C18U A43U, the self-cleavage turned out to be 0.102. G40A: the self-cleavage worked out at 0.329.

Turning to C3A U5G, the self-cleavage was found to be 0.117. In the case of G25A A61G it was 0.208; in that of C6U U14G, 0.791. Next, U2C U5G: 0.0932; A45U G54A: 0.138.

On to A36C G42U, for which the self-cleavage amounted to 0.116. Next, G1C G15C: 0.117; G32U A59C: 0.0899; G25C A35U: 0.228.

On to U55A U60G, for which the self-cleavage came out at 0.33. Next, C3G A22C: 0.227; U14C G32C: 0.244; G13U C16G: 0.655. In the case of U14G it was 0.813. In the case of A31U A49G it was 0.121. On to A22G U52A, for which the self-cleavage amounted to 0.853.
